Here are results for 23 variants from the supplement of paper PMC7125110.

First the molecules themselves.
B1: glmS ribozyme (parent)
chain: AUAAAAGCGCCAGAACUACAGAAAUGUAGUUGACGAGGAGGAGGUUUAUCGAAUUUUCGGCGGAUGCCUCCAAA

± gives the standard error. Fewer inactive variants are shown than the library holds.

Holding throughout (conditions): with glucosamine-6-phosphate
Variants of B1 are the subject of series [1]. In words: self-cleavage kobs at 40 uM GlcN6P; higher = faster cleavage; RNA array. A digest of the protocol:
(§1)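 Glucosamine-6-phosphate (40 μM to 10 mM) in HEPES/KCl/Mg(OAc)2 buffer was flowed over sequenced MiSeq chips, and tiles were imaged over ~14 h. Barcoded ribozyme variants there had been transcribed in situ by E. coli RNA polymerase and were tracked through a hybridised Cy3 probe at 37 °C. One- or two-exponential decay fits to per-tile medians, normalised to baseline and to non-cleaving reference variants, gave kobs. kcat and KM came from weighted Michaelis–Menten fits across concentrations.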

The variants in series [2] derive from B1. In words: self-cleavage kobs at 10000 uM GlcN6P; higher = faster cleavage; RNA array. The method, boiled down: as §1
Series [3] covers variants of B1. In words: self-cleavage kobs at 160 uM GlcN6P; higher = faster cleavage; RNA array. A digest of the protocol: as §1
Variants of B1 are the subject of series [4]. In words: self-cleavage kobs at 640 uM GlcN6P; higher = faster cleavage; RNA array. The method, boiled down:
as §1

Variants of B1 are the subject of series [5]. In words: self-cleavage kobs at 2500 uM GlcN6P; higher = faster cleavage; RNA array. A digest of the protocol:
as §1

For C10A U30G C71U, the “self-cleavage kobs at 40 uM GlcN6P” value in series [1] was below 1e-05 s⁻¹. Moreover, the “self-cleavage kobs at 10000 uM GlcN6P” value in series [2] was below 1e-05 s⁻¹.
For G37C C50U C70A, in series [1], the “self-cleavage kobs at 40 uM GlcN6P” value amounted to 0.00229 ± 0.00095 s⁻¹.
Same read-out and setting: with A15G G60C the figure was below 1e-05 s⁻¹.
Take A14U U55A: the “self-cleavage kobs at 40 uM GlcN6P” value in series [1] was found to be 0.000252 ± 3.9e-05 s⁻¹. In series [2], the “self-cleavage kobs at 10000 uM GlcN6P” value is 0.00696 ± 0.0011 s⁻¹.
The corresponding values for U30G A52U U54A are below 1e-05 s⁻¹ and 4.6e-05 ± 1.6e-05 s⁻¹.
Regarding G38A G41U, the “self-cleavage kobs at 40 uM GlcN6P” value in series [1] was below 1e-05 s⁻¹. Moreover, in series [3], the “self-cleavage kobs at 160 uM GlcN6P” value is below 1e-05 s⁻¹. Also, the “self-cleavage kobs at 640 uM GlcN6P” value in series [4] was below 1e-05 s⁻¹. Moreover, in series [2], the “self-cleavage kobs at 10000 uM GlcN6P” value is below 1e-05 s⁻¹.
Turning to U45C C61U, the “self-cleavage kobs at 40 uM GlcN6P” value in series [1] was below 1e-05 s⁻¹. Also, the “self-cleavage kobs at 160 uM GlcN6P” value in series [3] was below 1e-05 s⁻¹. Moreover, the “self-cleavage kobs at 640 uM GlcN6P” value in series [4] is below 1e-05 s⁻¹. In addition, in series [2], the “self-cleavage kobs at 10000 uM GlcN6P” value was below 1e-05 s⁻¹.
Take G9A C11U: the “self-cleavage kobs at 40 uM GlcN6P” value in series [1] is below 1e-05 s⁻¹. Also, in series [3], the “self-cleavage kobs at 160 uM GlcN6P” value was below 1e-05 s⁻¹. The “self-cleavage kobs at 640 uM GlcN6P” value in series [4] is below 1e-05 s⁻¹. For the same variant, the “self-cleavage kobs at 2500 uM GlcN6P” value in series [5] is below 1e-05 s⁻¹. For the same variant, the “self-cleavage kobs at 10000 uM GlcN6P” value in series [2] is below 1e-05 s⁻¹.
Turning to U49G G59C, the “self-cleavage kobs at 40 uM GlcN6P” value in series [1] was below 1e-05 s⁻¹. Further, the “self-cleavage kobs at 160 uM GlcN6P” value in series [3] is below 1e-05 s⁻¹. Besides, the “self-cleavage kobs at 10000 uM GlcN6P” value in series [2] is below 1e-05 s⁻¹.
Regarding G40U U56A G62U C67G, the “self-cleavage kobs at 40 uM GlcN6P” value in series [1] is below 1e-05 s⁻¹. Further, in series [3], the “self-cleavage kobs at 160 uM GlcN6P” value was below 1e-05 s⁻¹. In addition, the “self-cleavage kobs at 640 uM GlcN6P” value in series [4] was below 1e-05 s⁻¹. Also, the “self-cleavage kobs at 2500 uM GlcN6P” value in series [5] is below 1e-05 s⁻¹.
For the variant G41A C68U, the “self-cleavage kobs at 40 uM GlcN6P” value in series [1] is below 1e-05 s⁻¹. Further, in series [3], the “self-cleavage kobs at 160 uM GlcN6P” value is below 1e-05 s⁻¹. The “self-cleavage kobs at 2500 uM GlcN6P” value in series [5] turned out to be 1.85e-05 ± 7.6e-06 s⁻¹. The “self-cleavage kobs at 10000 uM GlcN6P” value in series [2] is 2.09e-05 ± 8.7e-06 s⁻¹.
For G21U U31A, in series [1], the “self-cleavage kobs at 40 uM GlcN6P” value was determined as 0.000447 ± 9.2e-05 s⁻¹. The “self-cleavage kobs at 160 uM GlcN6P” value in series [3] worked out at 0.00108 ± 0.0003 s⁻¹. Further, the “self-cleavage kobs at 640 uM GlcN6P” value in series [4] worked out at 0.00614 ± 0.0013 s⁻¹. Besides, in series [5], the “self-cleavage kobs at 2500 uM GlcN6P” value was determined as 0.0102 ± 0.0025 s⁻¹. For the same variant, the “self-cleavage kobs at 10000 uM GlcN6P” value in series [2] came out at 0.042 ± 0.018 s⁻¹.
The corresponding values for C11U U69G are 5.87e-05 ± 1.4e-05 s⁻¹, 7.55e-05 ± 2.7e-05 s⁻¹, 0.000286 ± 6.5e-05 s⁻¹, 9.51e-05 ± 2.1e-05 s⁻¹ and 5.87e-05 ± 8.8e-06 s⁻¹.
As for A6C U30G G51A U65G, the “self-cleavage kobs at 40 uM GlcN6P” value in series [1] is below 1e-05 s⁻¹. In series [2], the “self-cleavage kobs at 10000 uM GlcN6P” value was below 1e-05 s⁻¹.
For the variant C10G G59C, the “self-cleavage kobs at 40 uM GlcN6P” value in series [1] is below 1e-05 s⁻¹. Further, the “self-cleavage kobs at 640 uM GlcN6P” value in series [4] is below 1e-05 s⁻¹.
A12C G38A: the “self-cleavage kobs at 40 uM GlcN6P” value in series [1] is below 1e-05 s⁻¹. The “self-cleavage kobs at 160 uM GlcN6P” value in series [3] was below 1e-05 s⁻¹.
For the variant U30G G35A, in series [1], the “self-cleavage kobs at 40 uM GlcN6P” value was below 1e-05 s⁻¹. Further, the “self-cleavage kobs at 2500 uM GlcN6P” value in series [5] is below 1e-05 s⁻¹. Besides, in series [2], the “self-cleavage kobs at 10000 uM GlcN6P” value was below 1e-05 s⁻¹.
Consider A36G G51A, for which the “self-cleavage kobs at 40 uM GlcN6P” value in series [1] is below 1e-05 s⁻¹. The “self-cleavage kobs at 160 uM GlcN6P” value in series [3] was below 1e-05 s⁻¹. Moreover, in series [4], the “self-cleavage kobs at 640 uM GlcN6P” value was below 1e-05 s⁻¹.
For G7A G9U U31G G41A U65C, the “self-cleavage kobs at 40 uM GlcN6P” value in series [1] was below 1e-05 s⁻¹. Moreover, the “self-cleavage kobs at 160 uM GlcN6P” value in series [3] is below 1e-05 s⁻¹. Also, the “self-cleavage kobs at 640 uM GlcN6P” value in series [4] is below 1e-05 s⁻¹.
In the case of G43U A53U U65G, in series [1], the “self-cleavage kobs at 40 uM GlcN6P” value was below 1e-05 s⁻¹. Also, the “self-cleavage kobs at 640 uM GlcN6P” value in series [4] was below 1e-05 s⁻¹.
Turning to C34A U65G, in series [1], the “self-cleavage kobs at 40 uM GlcN6P” value is below 1e-05 s⁻¹. The “self-cleavage kobs at 160 uM GlcN6P” value in series [3] was below 1e-05 s⁻¹. In series [4], the “self-cleavage kobs at 640 uM GlcN6P” value is below 1e-05 s⁻¹. In addition, the “self-cleavage kobs at 2500 uM GlcN6P” value in series [5] is below 1e-05 s⁻¹. The “self-cleavage kobs at 10000 uM GlcN6P” value in series [2] is below 1e-05 s⁻¹.
On to G44A G59C C71U, for which the “self-cleavage kobs at 40 uM GlcN6P” value in series [1] was below 1e-05 s⁻¹. In addition, the “self-cleavage kobs at 10000 uM GlcN6P” value in series [2] was below 1e-05 s⁻¹.
With A15C C16U U57A G66C, the “self-cleavage kobs at 40 uM GlcN6P” value in series [1] is below 1e-05 s⁻¹. Moreover, the “self-cleavage kobs at 10000 uM GlcN6P” value in series [2] is below 1e-05 s⁻¹.
